Publication PMC11327152, “Fully-automated production of [^68Ga]Ga-Trivehexin for clinical application and its biodistribution in healthy volunteers” (Frontiers in Oncology, 2024)

Assays:
[1] = Stability of [^68Ga]Ga-Trivehexin in formulation (PBS), radio-HPLC; format: physicochemical; settings: Phosphate Buffer Saline, 2 h co-incubation of final product
Experimental: Radiochemical purity was evaluated by radio-HPLC and radio-TLC. For radio-HPLC, a mobile phase of H2O with 0.1% trifluoroacetic acid (TFA) (v/v, phase A) and acetonitrile with 0.1% TFA (v/v, phase B) was used with a flow rate of 1.0 mL/min and a linear elution gradient as follows: 0-5 min (0-95% A); 5-10 min (95-30% A);10-20 min (30-0% A). For radio-TLC, 0.4 M ammonium acetate solution/methanol (v/v, 1/1) (A) and 0.1 M citrate buffer (B) were used as mobile phases, respectively.
The stability of [^68Ga]Ga-Trivehexin in formulation and serum was further evaluated in Phosphate Buffer Saline (PBS) and Fetal Bovine Serum (FBS). After co-incubation of the final product with PBS or FBS for 60 or 120 min, radio-HPLC was used for the analysis.

[2] = clinical; settings: human, in vivo, iv, total radioactivity
[3] = tested on: healthy volunteers; set-up: species or system human; settings: in vivo
Experimental: (§1) Applications of [^68Ga]Ga-Trivehexin in 3 healthy volunteers were done with written informed consent, and details of the volunteers were shown in Supplementary Table S2 . […] The PET scan was performed at 10 min, 35 min, and 60 min after intravenous injection, without repeated CT scans. Another PET/CT imaging sequence was obtained at 150 min post-injection, as the subject had to leave the scanner for voiding. Based on human PET data, the dosimetry values were calculated using OLINDA V2.2 to calculate organ doses and effective dose (as defined by International Commission on Radiological Protection publication 103) ([14]) using the International Commission on Radiological Protection publication 89 ([15]) adult human male and female models.

[4] = tested on: healthy volunteers; assay: clinical; settings: human, in vivo, iv
Experimental: (§2) The clinical study was approved by Medical Ethics Committee, Zhongnan Hospital of Wuhan University and registered at ClinicalTrials.gov (NCT05835570). PET/CT imaging was performed using a Siemens-Biograph mCT PET/CT scanner (Siemens Healthineers, Erlangen, Germany). No special preparation was needed for [^68Ga]Ga-Trivehexin PET/CT. The injection dose was 87-122 MBq (70.7 MBq/mL, 90.9 MBq/nmol) and was determined on the basis of the patient’s weight (1.85 MBq/kg). PET/CT images were scanned from the top of the head to the upper thigh. PET data were obtained in a three-dimensional mode (matrix 200 × 200) of 6-8 bed positions (3 min/bed). Attenuation correction of PET images was performed using low-dose CT data. Image reconstruction was performed using the TrueX and time-of-flight (ultrahigh-definition PET) algorithms.
as §1

[5] = clinical; settings: human, in vivo, iv, total radioactivity; remark: listed apart in the source
Experimental: as §2, §1

CC(C)C[C@@H]1NC(=O)[C@H](CC(=O)O)NC(=O)CNC(=O)[C@H](CCCNC(=N)N)NC(=O)[C@H](Cc2ccc(O)cc2)NC(=O)[C@H](CCCCNC(=O)CCc2cn(CCCNC(=O)CCP(=O)(O)CN3CCN(CP(=O)(O)CCC(=O)NCCCn4cc(CCC(=O)NCCCC[C@H]5C(=O)N[C@@H](Cc6ccc(O)cc6)C(=O)N[C@@H](CCCNC(=N)N)C(=O)NCC(=O)N[C@@H](CC(=O)O)C(=O)N[C@@H](CC(C)C)C(=O)N[C@@H](C)C(=O)N[C@@H](Cc6ccc(O)cc6)C(=O)N6CCC[C@@H]6C(=O)N5C)nn4)CCN(CP(=O)(O)CCC(=O)NCCCn4cc(CCC(=O)NCCCC[C@H]5C(=O)N[C@@H](Cc6ccc(O)cc6)C(=O)N[C@@H](CCCNC(=N)N)C(=O)NCC(=O)N[C@@H](CC(=O)O)C(=O)N[C@@H](CC(C)C)C(=O)N[C@@H](C)C(=O)N[C@@H](Cc6ccc(O)cc6)C(=O)N6CCC[C@@H]6C(=O)N5C)nn4)CC3)nn2)N(C)C(=O)[C@H]2CCCN2C(=O)[C@H](Cc2ccc(O)cc2)NC(=O)[C@H](C)NC1=O [[^68Ga]Ga-Trivehexin, metal not drawn]
intact tracer remained in PBS [1]: up to 98.9% | SUV at 0.25 h ([2]; SUVmean ± SD Brain): 0.04 ± 0.01 SUV | SUV at 0.5 h ([2]; SUVmean ± SD Brain): 0.03 ± 0.01 SUV | SUV at 0.25 h ([2]; SUVmean ± SD Colon): 1.86 ± 0.31 SUV | SUV at 0.5 h ([2]; SUVmean ± SD Colon): 1.52 ± 0.36 SUV | SUV at 2.5 h ([2]; SUVmean ± SD Colon): 0.78 ± 0.16 SUV | SUV at 0.25 h ([2]; SUVmean ± SD Eyes): 0.36 ± 0.04 SUV | SUV at 0.5 h ([2]; SUVmean ± SD Eyes): 0.28 ± 0.14 SUV | SUV at 1 h ([2]; SUVmean ± SD Eyes): 0.71 ± 0.28 SUV | SUV at 2.5 h ([2]; SUVmean ± SD Eyes): 0.12 ± 0.03 SUV | SUV at 0.25 h ([2]; SUVmean ± SD Fat tissue): 0.26 ± 0.03 SUV | SUV at 0.5 h ([2]; SUVmean ± SD Fat tissue): 0.22 ± 0.03 SUV | SUV at 1 h ([2]; SUVmean ± SD Fat tissue): 0.26 ± 0.02 SUV | SUV at 0.25 h ([2]; SUVmean ± SD Kidney): 19.3 ± 1.13 SUV | SUV at 0.5 h ([2]; SUVmean ± SD Kidney): 21.5 ± 1.28 SUV | SUV at 1 h ([2]; SUVmean ± SD Kidney): 23.4 ± 2.38 SUV | SUV at 0.25 h ([2]; SUVmean ± SD Liver): 1.68 ± 0.26 SUV | SUV at 0.5 h ([2]; SUVmean ± SD Liver): 1.11 ± 0.23 SUV | SUV at 2.5 h ([2]; SUVmean ± SD Liver): 0.65 ± 0.1 SUV | SUV at 0.25 h ([2]; SUVmean ± SD Lung): 0.65 ± 0.03 SUV | SUV at 0.5 h ([2]; SUVmean ± SD Lung): 0.58 ± 0.14 SUV | SUV at 1 h ([2]; SUVmean ± SD Lung): 0.53 ± 0.05 SUV | SUV at 0.25 h ([2]; SUVmean ± SD Muscle): 1.04 ± 0.1 SUV | SUV at 0.5 h ([2]; SUVmean ± SD Muscle): 1.04 ± 0.01 SUV | SUV at 2.5 h ([2]; SUVmean ± SD Muscle): 0.68 ± 0.1 SUV | SUV at 0.25 h ([2]; SUVmean ± SD Myocardium): 1.69 ± 0.35 SUV | SUV at 0.5 h ([2]; SUVmean ± SD Myocardium): 0.83 ± 0.13 SUV | SUV at 1 h ([2]; SUVmean ± SD Myocardium): 0.52 ± 0.01 SUV | SUV at 0.25 h ([2]; SUVmean ± SD Oral mucosa): 2.6 ± 0.38 SUV | SUV at 0.5 h ([2]; SUVmean ± SD Oral mucosa): 2.28 ± 0.13 SUV | SUV at 1 h ([2]; SUVmean ± SD Oral mucosa): 2.12 ± 0.43 SUV | SUV at 2.5 h ([2]; SUVmean ± SD Oral mucosa): 1.59 ± 0.42 SUV | SUV at 0.25 h ([2]; SUVmean ± SD Pancreas): 2.46 ± 0.12 SUV | SUV at 0.5 h ([2]; SUVmean ± SD Pancreas): 1.47 ± 0.24 SUV | SUV at 1 h ([2]; SUVmean ± SD Pancreas): 1.01 ± 0.11 SUV | SUV at 2.5 h ([2]; SUVmean ± SD Pancreas): 1.13 ± 0.28 SUV | SUV at 0.25 h ([2]; SUVmean ± SD Parotid gland): 2.31 ± 0.09 SUV | SUV at 0.5 h ([2]; SUVmean ± SD Parotid gland): 1.19 ± 0.06 SUV | SUV at 1 h ([2]; SUVmean ± SD Parotid gland): 1.01 ± 0.1 SUV | SUV at 0.25 h ([2]; SUVmean ± SD Spinal Canal(C5)): 1.17 ± 0.15 SUV | SUV at 0.5 h ([2]; SUVmean ± SD Spinal Canal(C5)): 0.62 ± 0.12 SUV | SUV at 2.5 h ([2]; SUVmean ± SD Spinal Canal(C5)): 0.54 ± 0.15 SUV | SUV at 0.25 h ([2]; SUVmean ± SD Spleen): 1.95 ± 0.12 SUV | SUV at 0.5 h ([2]; SUVmean ± SD Spleen): 1.01 ± 0.06 SUV | SUV at 1 h ([2]; SUVmean ± SD Spleen): 0.76 ± 0.01 SUV | SUV at 0.25 h ([2]; SUVmean ± SD Thyroid gland): 3.41 ± 0.22 SUV | SUV at 0.5 h ([2]; SUVmean ± SD Thyroid gland): 1.54 ± 0.29 SUV | SUV at 1 h ([2]; SUVmean ± SD Thyroid gland): 1.37 ± 0.04 SUV | SUV at 2.5 h ([2]; SUVmean ± SD Thyroid gland): 1.01 ± 0.37 SUV | Dose Adrenals [3]: 3.22E-02 mGy/MBq | Dose Brain [3]: 1.40E-03 mGy/MBq | Dose Esophagus [3]: 1.98E-02 mGy/MBq | Dose Eyes [3]: 4.25E-03 mGy/MBq | Dose Gallbladder Wall [3]: 2.09E-02 mGy/MBq | Dose Heart Wall [3]: 1.73E-02 mGy/MBq | Dose Kidneys [3]: 2.26E-01 mGy/MBq | Dose Left colon [3]: 1.88E-02 mGy/MBq | Dose Liver [3]: 1.58E-02 mGy/MBq | Dose Lungs [3]: 8.72E-03 mGy/MBq | Dose Osteogenic Cells [3]: 1.86E-02 mGy/MBq | Dose Pancreas [3]: 1.96E-02 mGy/MBq | Dose Prostate [3]: 1.77E-02 mGy/MBq | Dose Rectum [3]: 1.96E-02 mGy/MBq | Dose Red Marrow [3]: 1.16E-02 mGy/MBq | Dose Right colon [3]: 1.86E-02 mGy/MBq | Dose Salivary Glands [3]: 1.53E-02 mGy/MBq | Dose Small Intestine [3]: 1.78E-02 mGy/MBq | Dose Spleen [3]: 1.68E-02 mGy/MBq | Dose Stomach Wall [3]: 1.77E-02 mGy/MBq | Dose Testes [3]: 1.41E-02 mGy/MBq | Dose Thymus [3]: 1.31E-02 mGy/MBq | Dose Thyroid [3]: 1.96E-02 mGy/MBq | Dose Total Body [3]: 1.26E-02 mGy/MBq | Dose Urinary Bladder Wall [3]: 8.24E-02 mGy/MBq | Effective Dose [3]: 1.67E-02 mGy/MBq | effective dose in adrenals [3]: 3.22E-02 mSv/MBq | effective dose in kidneys [3]: 2.26E-01 mSv/MBq | effective dose in urinary bladder wall [3]: 8.24E-02 mSv/MBq | total body effective dose [3]: 1.67E-02 mSv/MBq | SUVmean ± SD Brain [4]: 0.01 ± 0.00 | SUV at 1 h ([5]; SUVmean ± SD Colon): 1.07 ± 0.21 SUV | SUV at 2.5 h ([5]; SUVmean ± SD Fat tissue): 0.22 ± 0.1 SUV | SUV at 2.5 h ([5]; SUVmean ± SD Kidney): 21.3 ± 2 SUV | SUV at 1 h ([5]; SUVmean ± SD Liver): 0.82 ± 0.07 SUV | SUV at 2.5 h ([5]; SUVmean ± SD Lung): 0.45 ± 0.13 SUV | SUV at 1 h ([5]; SUVmean ± SD Muscle): 0.97 ± 0.1 SUV | SUV at 2.5 h ([5]; SUVmean ± SD Myocardium): 0.5 ± 0.09 SUV | SUV at 2.5 h ([5]; SUVmean ± SD Parotid gland): 0.97 ± 0.07 SUV | SUV at 1 h ([5]; SUVmean ± SD Spinal Canal(C5)): 0.85 ± 0.13 SUV | SUV at 2.5 h ([5]; SUVmean ± SD Spleen): 0.55 ± 0.07 SUV
